Measured values reported in paper PMC9082959, “Mechanism of Assembly of the Non-Covalent Spectrin Tetramerization Domain from Intrinsically Disordered Partners” (Journal of molecular biology, 2013).

Experiments:
Settings in all cases: both partners purified
β16β17 Y28L = target: T1, β16β17 Y28L (human, UniProt P11277 1898-2083, Y2031L); assay: ITC; β16β17 at 25–50 μM in the cell titrated with 15–20 injections to 2–2.5 eq of α0α1; one-site binding model; PBS (50 mM sodium phosphate, 150 mM NaCl, pH 7.04), 25 °C; mutants only against the wild-type partner
T1 construct: erythrocyte β-spectrin, human, residues 1898-2083 (β16β17); mutant of m2; also called Y2031L; source: E. coli C41(DE3), purified (Ni2+ agarose, thrombin cleavage, gel filtration)
T1 sequence (looked up): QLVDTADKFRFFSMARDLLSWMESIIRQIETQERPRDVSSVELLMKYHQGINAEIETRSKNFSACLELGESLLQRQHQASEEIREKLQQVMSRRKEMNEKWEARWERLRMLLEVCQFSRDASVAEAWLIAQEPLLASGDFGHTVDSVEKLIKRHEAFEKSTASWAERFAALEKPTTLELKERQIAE

[1] = target: T2, β16β17 (erythrocyte β-spectrin residues 1898–2083), wild type (human, UniProt P11277 1898-2083); assay: as above
T2 construct: erythrocyte β-spectrin, human, residues 1898-2083 (β16 plus the incomplete 17th domain); synthetic gene (GenScript) in a modified pRSETA plasmid; source: E. coli C41(DE3), purified (Ni2+ agarose, thrombin cleavage, gel filtration)
T2 sequence (looked up): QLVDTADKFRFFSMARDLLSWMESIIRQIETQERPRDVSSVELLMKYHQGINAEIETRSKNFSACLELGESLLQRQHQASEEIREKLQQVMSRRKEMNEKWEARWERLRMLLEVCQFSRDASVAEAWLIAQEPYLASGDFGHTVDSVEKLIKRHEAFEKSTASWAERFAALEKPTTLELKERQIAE

β16β17 A15G = target: T3, β16β17 A15G (human, UniProt P11277 1898-2083, A2018G); assay: as above
T3 construct: erythrocyte β-spectrin, human, residues 1898-2083 (β16β17); mutant of m2; also called A2018G; source: E. coli C41(DE3), purified (Ni2+ agarose, thrombin cleavage, gel filtration)
T3 sequence (looked up): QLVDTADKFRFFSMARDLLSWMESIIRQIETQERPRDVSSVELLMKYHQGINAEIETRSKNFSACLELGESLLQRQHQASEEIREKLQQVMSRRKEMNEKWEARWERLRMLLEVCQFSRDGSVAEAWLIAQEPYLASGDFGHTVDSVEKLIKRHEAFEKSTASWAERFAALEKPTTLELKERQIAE

β16β17 V41A = target: T4, β16β17 V41A (human, UniProt P11277 1898-2083, V2044A); assay: as above
T4 construct: erythrocyte β-spectrin, human, residues 1898-2083 (β16β17); mutant of m2; also called V2044A; source: E. coli C41(DE3), purified (Ni2+ agarose, thrombin cleavage, gel filtration)
T4 sequence (looked up): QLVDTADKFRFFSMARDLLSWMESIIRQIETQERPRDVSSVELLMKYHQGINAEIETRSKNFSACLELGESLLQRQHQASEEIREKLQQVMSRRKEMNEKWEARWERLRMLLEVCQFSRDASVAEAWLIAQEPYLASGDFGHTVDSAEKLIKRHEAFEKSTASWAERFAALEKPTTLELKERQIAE

[2] = target: T2, β16β17 (erythrocyte β-spectrin residues …); assay: stopped-flow intrinsic tryptophan fluorescence (dissociation/unfolding kinetics); wild type; observed rate constants for tetramer dissociation calculated from folding and unfolding experiments in urea; k− in water with mk− 1.44 M^-1; PBS, 25 °C
[3] = target: T2, β16β17 (erythrocyte β-spectrin residues …); assay: ITC; β16β17 at 25–50 μM in the cell titrated with 15–20 injections to 2–2.5 eq of α0α1; one-site binding model; PBS (50 mM sodium phosphate, 150 mM NaCl, pH 7.04), 25 °C; mutants only against the wild-type partner; remark: listed apart in the source

Ka (β16β17 Y28L): 170000 M⁻¹
Ka [1]: 2.07e+06 M⁻¹
Ka (β16β17 A15G): 6000 M⁻¹
Ka (β16β17 V41A): 420000 M⁻¹
koff [2]: 0.00025 s⁻¹
Kd [3]: 400 nM
B1: α0α1 (erythrocyte α-spectrin residues 2–163), wild type (domain or fragment, human, UniProt P02549 2-163, looked up)
chain: EQFPKETVVESSGPKVLETAEEIQERRQEVLTRYQSFKERVAERGQKLEDSYHLQVFKRDADDLGKWIMEKVNILTDKSYEDPTNIQGKYQKHQSLEAEVQTKSRLMSELEKTREERFTMGHSAHEETKAHIEELRHLWDLLLELTLEKGDQLLRALKFQQY
notes: synthetic gene (GenScript) in a modified pRSETA plasmid; also called α1α0; source: E. coli C41(DE3), purified (Ni2+ agarose, thrombin cleavage, gel filtration)
